Data taken from publication PMC10139993.

B1: Fused in sarcoma (FUS) wildtype with N-terminal GFP tag [not stated] / itself (parent)
chain: MASNDYTQQATQSYGAYPTQPGQGYSQQSSQPYGQQSYSGYSQSTDTSGYGQSSYSSYGQSQNTGYGTQSTPQGYGSTGGYGSSQSSQSSYGQQSSYPGYGQQPAPSSTSGSYGSSSQSSSYGQPQSGSYSQQPSYGGQQQSYGQQQSYNPPQGYGQQNQYNSSSGGGGGGGGGGNYGQDQSSMSSGGGSGGGYGNQDQSGGGGSGGYGQQDRGGRGRGGSGGGGGGGGGGYNRSSGGYEPRGRGGGRGGRGGMGGSDRGGFNKFGGPRDQGSRHDSEQDNSDNNTIFVQGLGENVTIESVADYFKQIGIIKTNKKTGQPMINLYTDRETGKLKGEATVSFDDPPSAKAAIDWFDGKEFSGNPIKVSFATRRADFNRGGGNGRGGRGRGGPMGRGGYGGGGSGGGGRGGFPSGGGGGGGQQRAGDWKCPNPTCENMNFSWRNECNQCKAPKPDGPGGGPGGSHMGGNYGDDRRGGRGGYDRGGYRGRGGDRGGFRGGRGGGDRGGFGPGKMDSRGEHRQDRRERPY

Variants of: B1
Experiment: SiMPull photobleaching step analysis
Settings: with itself, read off a plot

Row | Variant | photobleaching steps (0.4M sorbitol 4 hr) | photobleaching steps (no stress) | photobleaching steps (without stress)
1 | chain 1 R244C | 2.1 steps | 2.1 steps | 2.1 steps
2 | chain 1 G156E | 2 steps | 1.6 steps | 1.6 steps

Other lines, results leading:

Row | photobleaching steps (0.4M sorbitol 4 hr) | photobleaching steps (no stress) | photobleaching steps (without stress) | Variant
3 | 2.2 steps | 2.2 steps | 2.2 steps | chain 1 R216C
4 | 2.5 steps | – | – | chain 1 G187S
